One data set deals with HeLa Kyoto. Nature of the data set: melting temperature (median over replicates), in situ; higher = more thermally stable. To be noted: cell cycle stage: G1/S.
Sequence “MAPGRAVAGLLLLAAAGLGGVAEGPGLAFSEDVLSVFGANLSLSAAQLQHLLEQMGAASRVGVPEPGQLHFNQCLTAEEIFSLHGFSNATQITSSKFSVICPAVLQQLNFHPCEDRPKHKTRPSHSEVWGYGFLSVTIINLASLLGLILTPLIKKSYFPKILTFFVGLAIGTLFSNAIFQLIPEAFGFDPKVDSYVEKAVAVFGGFYLLFFFERMLKMLLKTYGQNGHTHFGNDNFGPQEKTHQPKALPAINGVTCYANPAVTEANGHIHFDNVSVVSLQDGKKEPSSCTCLKGPKLSEIGTIAWMITLCDALHNFIDGLAIGASCTLSLLQGLSTSIAILCEEFPHELGDFVILLNAGMSTRQALLFNFLSACSCYVGLAFGILVGNNFAPNIIFALAGGMFLYISLADMFPEMNDMLREKVTGRKTDFTFFMIQNAGMLTGFTAILLITLYAGEIELE [SLC39A8]” yielded a melting temperature of 58.6 °C. In the case of “MDCEVNNGSSLRDECITNLLVFGFLQSCSDNSFRRELDALGHELPVLAPQWEGYDELQTDGNRSSHSRLGRIEADSESQEDIIRNIARHLAQVGDSMDRSIPPGLVNGLALQLRNTSRSEEDRNRDLATALEQLLQAYPRDMEKEKTMLVLALLLAKKVASHTPSLLRDVFHTTVNFINQNLRTYVRSLARNGMD [BID]”, the melting temperature came to 52.8 °C.

For “MENGAVYSPTTEEDPGPARGPRSGLAAYFFMGRLPLLRRVLKGLQLLLSLLAFICEEVVSQCTLCGGLYFFEFVSCSAFLLSLLILIVYCTPFYERVDTTKVKSSDFYITLGTGCVFLLASIIFVSTHDRTSAEIAAIVFGFIASFMFLLDFITMLYEKRQESQLRKPENTTRAEALTEPLNA [CMTM6]”, the melting temperature stood at 55.6 °C. Sequence “MESMAVATDGGERPGVPAGSGLSASQRRAELRRRKLLMNSEQRINRIMGFHRPGSGAEEESQTKSKQQDSDKLNSLSVPSVSKRVVLGDSVSTGTTDQQGGVAEVKGTQLGDKLDSFIKPPECSSDVNLELRQRNRGDLTADSVQRGSRHGLEQYLSRFEEAMKLRKQLISEKPSQEDGNTTEEFDSFRIFRLVGCALLALGVRAFVCKYLSIFAPFLTLQLAYMGLYKYFPKSEKKIKTTVLTAALLLSGIPAEVINRSMDTYSKMGEVFTDLCVYFFTFIFCHELLDYWGSEVP [CAMLG]” displayed a melting temperature of 57.8 °C. The same measure, in the same setting: then “MGFIFSKSMNESMKNQKEFMLMNARLQLERQLIMQSEMRERQMAMQIAWSREFLKYFGTFFGLAAISLTAGAIKKKKPAFLVPIVPLSFILTYQYDLGYGTLLERMKGEAEDILETEKSKLQLPRGMITFESIEKARKEQSRFFIDK [PLGRKT]”, with 56.5 °C; and “MGRLLRAARLPPLLSPLLLLLVGGAFLGACVAGSDEPGPEGLTSTSLLDLLLPTGLEPLDSEEPSETMGLGAGLGAPGSGFPSEENEESRILQPPQYFWEEEEELNDSSLDLGPTADYVFPDLTEKAGSIEDTSQAQELPNLPSPLPKMNLVEPPWHMPPREEEEEEEEEEEREKEEVEKQEEEEEEELLPVNGSQEEAKPQVRDFSLTSSSQTPGATKSRHEDSGDQASSGVEVESSMGPSLLLPSVTPTTVTPGDQDSTSQEAEATVLPAAGLGVEFEAPQEASEEATAGAAGLSGQHEEVPALPSFPQTTAPSGAEHPDEDPLGSRTSASSPLAPGDMELTPSSATLGQEDLNQQLLEGQAAEAQSRIPWDSTQVICKDWSNLAGKNYIILNMTENIDCEVFRQHRGPQLLALVEEVLPRHGSGHHGAWHISLSKPSEKEQHLLMTLVGEQGVVPTQDVLSMLGDIRRSLEEIGIQNYSTTSSCQARASQVRSDYGTLFVVLVVIGAICIIIIALGLLYNCWQRRLPKLKHVSHGEELRFVENGCHDNPTLDVASDSQSEMQEKHPSLNGGGALNGPGSWGALMGGKRDPEDSDVFEEDTHL [PODXL2]”, with 54 °C. Same read-out and setting: in the case of “MLGSRAAGFARGLRAVALAWLPGWRGRSFALARAAGAPHGGDLQPPACPEPRGRQLSLSAAAVVDSAPRPLQPYLRLMRLDKPIGTWLLYLPCTWSIGLAAEPGCFPDWYMLSLFGTGAILMRGAGCTINDMWDQDYDKKVTRTANRPIAAGDISTFQSFVFLGGQLTLALGVLLCLNYYSIALGAGSLLLVITYPLMKRISYWPQLALGLTFNWGALLGWSAIKGSCDPSVCLPLYFSGVMWTLIYDTIYAHQDKRDDVLIGLKSTALRFGENTKPWLSGFSVAMLGALSLVGVNSGQTAPYYAALGAVGAHLTHQIYTLDIHRPEDCWNKFISNRTLGLIVFLGIVLGNLWKEKKTDKTKKGIENKIEN [COQ2]” it was 55.1 °C.

The same data set, now with this note: cell cycle stage: mitosis.
For “MASKTKASEALKVVARCRPLSRKEEAAGHEQILTMDVKLGQVTLRNPRAAPGELPKTFTFDAVYDASSKQADLYDETVRPLIDSVLQGFNGTVFAYGQTGTGKTYTMQGTWVEPELRGVIPNAFEHIFTHISRSQNQQYLVRASYLEIYQEEIRDLLSKEPGKRLELKENPETGVYIKDLSSFVTKNVKEIEHVMNLGNQTRAVGSTHMNEVSSRSHAIFIITVECSERGSDGQDHIRVGKLNLVDLAGSERQNKAGPNTAGGAATPSSGGGGGGGGSGGGAGGERPKEASKINLSLSALGNVIAALAGNRSTHIPYRDSKLTRLLQDSLGGNAKTIMVATLGPASHSYDESLSTLRFANRAKNIKNKPRVNEDPKDTLLREFQEEIARLKAQLEKRGMLGKRPRRKSSRRKKAVSAPPGYPEGPVIEAWVAEEEDDNNNNHRPPQPILESALEKNMENYLQEQKERLEEEKAAIQDDRSLVSEEKQKLLEEKEKMLEDLRREQQATELLAAKYKAMESKLLIGGRNIMDHTNEQQKMLELKRQEIAEQKRREREMQQEMMLRDEETMELRGTYTSLQQEVEVKTKKLKKLYAKLQAVKAEIQDQHDEYIRVRQDLEEAQNEQTRELKLKYLIIENFIPPEEKNKIMNRLFLDCEEEQWKFQPLVPAGVSSSQMKKRPTSAVGYKRPISQYARVAMAMGSHPRYRAENIMFLELDVSPPAVFEMEFSHDQEQDPRALHMERLMRLDSFLERPSTSKVRKSRSWCQSPQRPPPSTTHASLASASLRPATVADHE [KIF3C]”, the melting temperature stood at 50.4 °C. “MCVRSCFQSPRLQWVWRTAFLKHTQRRHQGSHRWTHLGGSTYRAVIFDMGGVLIPSPGRVAAEWEVQNRIPSGTILKALMEGGENGPWMRFMRAEITAEGFLREFGRLCSEMLKTSVPVDSFFSLLTSERVAKQFPVMTEAITQIRAKGLQTAVLSNNFYLPNQKSFLPLDRKQFDVIVESCMEGICKPDPRIYKLCLEQLGLQPSESIFLDDLGTNLKEAARLGIHTIKVNDPETAVKELEALLGFTLRVGVPNTRPVKKTMEIPKDSLQKYLKDLLGIQTTGPLELLQFDHGQSNPTYYIRLANRDLVLRKKPPGTLLPSAHAIEREFRIMKALANAGVPVPNVLDLCEDSSVIGTPFYVMEYCPGLIYKDPSLPGLEPSHRRAIYTAMNTVLCKIHSVDLQAVGLEDYGKQGDYIPRQVRTWVKQYRASETSTIPAMERLIEWLPLHLPRQQRTTVVHGDFRLDNLVFHPEEPEVLAVLDWELSTLGDPLADVAYSCLAHYLPSSFPVLRGINDCDLTQLGIPAAEEYFRMYCLQMGLPPTENWNFYMAFSFFRVAAILQGVYKRSLTGQASSTYAEQTGKLTEFVSNLAWDFAVKEGFRVFKEMPFTNPLTRSYHTWARPQSQWCPTGSRSYSSVPEASPAHTSRGGLVISPESLSPPVRELYHRLKHFMEQRVYPAEPELQSHQASAARWSPSPLIEDLKEKAKAEGLWNLFLPLEADPEKKYGAGLTNVEYAHLCELMGTSLYAPEVCNCSAPDTGNMELLVRYGTEAQKARWLIPLLEGKARSCFAMTEPQVASSDATNIEASIREEDSFYVINGHKWWITGILDPRCQLCVFMGKTDPHAPRHRQQSVLLVPMDTPGIKIIRPLTVYGLEDAPGGHGEVRFEHVRVPKENMVLGPGRGFEIAQGRLGPGRIHHCMRLIGFSERALALMKARVKSRLAFGKPLVEQGTVLADIAQSRVEIEQARLLVLRAAHLMDLAGNKAAALDIAMIKMVAPSMASRVIDRAIQAFGAAGLSSDYPLAQFFTWARALRFADGPDEVHRATVAKLELKHRI [ACAD10]” returned a melting temperature of 50.7 °C. As to “MDCEVNNGSSLRDECITNLLVFGFLQSCSDNSFRRELDALGHELPVLAPQWEGYDELQTDGNRSSHSRLGRIEADSESQEDIIRNIARHLAQVGDSMDRSIPPGLVNGLALQLRNTSRSEEDRNRDLATALEQLLQAYPRDMEKEKTMLVLALLLAKKVASHTPSLLRDVFHTTVNFINQNLRTYVRSLARNGMD [BID]”, the melting temperature is 55.5 °C. On the same count and under the same terms, then “MGFIFSKSMNESMKNQKEFMLMNARLQLERQLIMQSEMRERQMAMQIAWSREFLKYFGTFFGLAAISLTAGAIKKKKPAFLVPIVPLSFILTYQYDLGYGTLLERMKGEAEDILETEKSKLQLPRGMITFESIEKARKEQSRFFIDK [PLGRKT]”, with 55.5 °C; and “MGGCVGAQHDSSGSLNENSEGTGVALGRNQPLKKEKPKWKSDYPMTDGQLRSKRDEFWDTAPAFEGRKEIWDALKAAAHAFESNDHELAQAIIDGANITLPHGALTECYDELGNRYQLPVYCLAPPINMIEEKSDIETLDIPEPPPNSGYECQLRLRLSTGKDLKLVVRSTDTVFHMKRRLHAAEGVEPGSQRWFFSGRPLTDKMKFEELKIPKDYVVQVIVSQPVQNPTPVEN [UBTD2]”, with 53.7 °C.

For the origin of these results see the supplement of paper PMC5998384.
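Further: HeLa Kyoto cells synchronized by double thymidine or nocodazole block, proteins quantified by TMT10plex mass spectrometry, three independent biological replicates.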
